# In IntAct's records for PubMed 18480252:
# B1: [PIN+] prion protein RNQ1 (Saccharomyces cerevisiae), P25367 (parent)
# chain: MDTDKLISEAESHFSQGNHAEAVAKLTSAAQSNPNDEQMSTIESLIQKIAGYVMDNRSGGSDASQDRAAGGGSSFMNTLMADSKGSSQTQLGKLALLATVMTHSSNKGSSNRGFDVGTVMSMLSGSGGGSQSMGASGLAALASQFFKSGNNSQGQGQGQGQGQGQGQGQGQGSFTALASLASSFMNSNNNNQQGQNQSSGGSSFGALASMASSFMHSNNNQNSNNSQQGYNQSYQNGNQNSQGYNNQQYQGGNGGYQQQQGQSGGAFSSLASMAQSYLGGGQTQSNQQQYNQQGQNNQQQYQQQGQNYQHQQQGQQQQQGHSSSFSALASMASSYLGNNSNSNSSYGGQQQANEYGRPQQNGQQQSNEYGRPQYGGNQNSNGQHESFNFSGNFSQQNNNGNQNRY
# partner: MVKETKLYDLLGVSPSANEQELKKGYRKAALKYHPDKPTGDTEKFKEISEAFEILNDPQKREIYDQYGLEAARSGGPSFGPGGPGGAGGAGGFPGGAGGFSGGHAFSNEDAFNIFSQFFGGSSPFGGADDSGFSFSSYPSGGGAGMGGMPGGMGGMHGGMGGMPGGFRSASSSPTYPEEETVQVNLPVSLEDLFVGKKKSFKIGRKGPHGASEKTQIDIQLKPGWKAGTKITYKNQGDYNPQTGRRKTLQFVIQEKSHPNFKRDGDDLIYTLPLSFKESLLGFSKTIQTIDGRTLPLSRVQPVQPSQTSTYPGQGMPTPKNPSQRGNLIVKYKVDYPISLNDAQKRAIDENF
# Variants of: B1
# Details: with sis1_yeast SIS1, P25294
row,Variant,effect of a mutation on the interaction
1,L94A,decreasing interaction
